{"source": "patent US20080242590A1", "about": "“New Method 706” (ASTRAZENECA AB, priority 2007, published 2008)", "molecules": {"B1": {"name": "mFc-Nep: mouse version of the Fc-Nep, SEQ ID NO 14 (protein, listed as Mus musculus)", "chain": "METDTLLLWVLLLWVPGSTGDVPRDCGCKPCICTVPPVSSVFIFPPKPKDVLTITLTPKVTCVVVAISKDDPEVQFSWFVDDVEVHTAQTQPREEQFASTFRSVSELPIMHQDWLNGKEFKCRVNSAAFPAPIEKTISKTKGRPKAPQVYTIPPPKEQMAKDKVSLTCMITDFFPEDITVEWQWNGQPAENYKNTQPIMNTNGSYFVYSKLNVQKSNWEAGNTFTCSVLHEGLHNHHTEKSLSHSPGKYDDGICKSSDCIKSAARLIQNMDASVEPCTDFFKYACGGWLKRNVIPETSSRYSNFDILRDELEVILKDVLQEPKTEDIVAVQKAKTLYRSCINESAIDSRGGQPLLKLLPDIYGWPVASDNWDQTYGTSWTAEKSIAQLNSKYGKKVLINFFVGTDDKNSTQHIIHFDQPRLGLPSRDYYECTGIYKEACTAYVDFMISVARLIRQEQSLPIDENQLSLEMNKVMELEKEIANATTKPEDRNDPMLLYNKMTLAKLQNNFSLEVNGKSFSWSNFTNEIMSTVNINIQNEEEVVVYAPEYLTKLKPILTKYSPRDLQNLMSWRFIMDLVSSLSRNYKESRNAFRKALYGTTSETATWRRCANYVNGNMENAVGRLYVEAAFAGESKHVVEDLIAQIREVFIQTLDDLTWMDAETKKKAEEKALAIKERIGYPDDIISNENKLNNEYLELNYREDEYFENIIQNLKFSQSKQLKKLREKVDKDEWISGAAVVNAFYSSGRNQIVFPAGILQPPFFSAQQSNSLNYGGIGMVIGHEITHGFDDNGRNFNKDGDLVDWWTQQSANNFKDQSQCMVYQYGNFSWDLAGGQHLNGINTLGENIADNGGIGQAYRAYQNYVKKNGEEKLLPGLDLNHKQLFFLNFAQVWCGTYRPEYAVNSIKTDVHSPGNFRIIGTLQNSAEFADAFHCRKNSYMNPERKCRVW"}}, "key": {"Aβ 1-42 [1]": {"tested_on": "Aβ 1-42", "experiment": "Degradation of Aβ 1-42 in human plasma pool (Example 28)", "assay_type": "biochemical", "settings": "room temperature, 1 hour", "description": "(§1) Blood from twelve individuals (6 females and 6 males) were collected into pre-chilled heparin-plasma tubes at the healthcare centre (AstraZeneca) at three different time points. Plasma was prepared by centrifugation at 2500×g for 20 min at 4° C. Plasma samples were collected and transferred to pre-chilled polypropylene tubes and immediately frozen and stored at −70° C. prior to use. Plasma was thawed and pooled from 12 individuals just before the experiment. Aβ 1-40 and 1-42 in plasma pool was degraded by human Fc-Nep or mouse Fc-Nep with corresponding vehicles (50 mM Tris-HCl, 150 mM NaCl pH 7.5). The following final concentrations of the Fc-Nep constructs were used, 100, 32, 10, 3.2, 1, 0.3, 0.1 and […] and the degradation occurred at room temperature for 1 hour while shaking on an orbital shaker. The enzymatic reaction was stopped by adding Phosphoramidone (10 μM final concentration). Concentration of amyloid β 1-40 in human plasma pool was measured using ELISA kit (Biosource; KHB3481) according to the manufacturers instructions.\nA final concentration of 4.7 mM EDTA was added to the tubes before the concentration of Aβ42 was analyzed using ELISA kit Innotest® β-Amyloid1-42 (Innogenetics, lot#177462, ref#80177) according to the manufacturers instructions."}, "human Aβ42": {"tested_on": "human Aβ42", "experiment": "Human Aβ42 in plasma, time-response after single i.v. dose (Example 26)", "assay_type": "in vivo, APPSWE-tg mice", "settings": "25 mg/kg single i.v."}, "[2]": {"experiment": "Observations of animal health (Example 26)", "assay_type": "in vivo, APPSWE-tg mice and C57BL/6 mice", "settings": "5 or 25 mg/kg single i.v., up to 336 hours", "description": "(§2) 21-23 weeks old female APPSWE-tg mice and 24 weeks old female C57BL/6 mice (6 mice/group) received vehicle or mFc-Nep at 5 or 25 mg/kg as a single intravenous injection and Aβ40 was analysed at different time points after injection (between 1.5-336 hours, i.e., up to 2 weeks). M-550426 was administrated per orally at 300 μmol/kg 3 hours before termination. For both mouse models, APPSWE-tg and C57BL/6, a positive control and blank groups were included. The following groups were included for the APPSWE-tg mice: 25 mg/kg: 1.5, 72, 168 and 336 hours; 5 mg/kg): 336 hours (2 weeks). For C57BL/6 mice: 25 mg/kg: 168 and 336 hours; 5 mg/kg): 1.5, 168 and 336 hours. […] Blood collection and plasma processing were basically as described in Example 25 The analysis of mouse Aβ40 levels in plasma of C57BL6 mice was as described in Example 25 The analysis of human Aβ40 and Aβ42 levels in plasma of APPSWE-tg mice was as described in Example 25 (as described in the last APP-tg study)."}, "amyloid β 1-40 [3]": {"tested_on": "amyloid β 1-40", "experiment": "Degradation of Aβ 1-40 in human plasma pool (Example 28)", "assay_type": "biochemical", "settings": "room temperature, 1 hour", "description": "as §1"}, "[4]": {"experiment": "Plasma exposure in C57BL/6 mice (Example 26)", "assay_type": "in vivo", "settings": "25 mg/kg single injection", "description": "as §2"}, "amyloid β 1-40 [5]": {"tested_on": "amyloid β 1-40", "experiment": "Degradation of Aβ 1-40 in APPswe-tg mouse plasma pool (Example 28)", "assay_type": "biochemical", "settings": "room temperature, 1 hour", "description": "Mouse plasma collected from 9 animals was stored at −70° C. Plasma was thawed and pooled just before the experiment. Aβ 1-40 and 1-42 in plasma pool was degraded by human Fc-Nep or mouse Fc-Nep with corresponding vehicles (50 mM Tris-HCl, 150 mM NaCl pH 7.5). […] The enzymatic reaction was stopped by adding Phosphoramidone (10 μM final concentration).\nAfter degradation, before concentration of amyloid β 1-40 in tg-mouse plasma pool was measured using ELISA kit (Biosource; KHB3481), the plasma samples were diluted 20 times in standard diluent buffer, according to manufacturers instructions."}, "mouse Aβ40": {"tested_on": "mouse Aβ40", "experiment": "Mouse Aβ40 in plasma, time-response after single i.v. dose (Example 26)", "assay_type": "in vivo, C57BL/6 mice", "settings": "25 mg/kg single injection, 2 weeks (336 hours)", "description": "(§3) The objective of this study was to evaluate the time-response relationship of the mouse version of the Fc-Nep (mFc-Nep, SEQ ID NO 14) in plasma of female APPSWE-tg mice and C57BL/6 mice after a single dose. The specific purpose is to find out how long the reducing effect of mFc-Nep on Aβ stays in the plasma, and to correlate the effect to the level of exposure of test compound in plasma. The γ-secretase inhibitor M-550426 is included as a positive compound.\n(§4) 21-23 weeks old female APPSWE-tg mice and 24 weeks old female C57BL/6 mice (6 mice/group) received vehicle or mFc-Nep at 5 or 25 mg/kg as a single intravenous injection and Aβ40 was analysed at different time points after injection (between 1.5-336 hours, i.e., up to 2 weeks). M-550426 was administrated per orally at 300 μmol/kg 3 hours before termination. For both mouse models, APPSWE-tg and C57BL/6, a positive control and blank groups were included. The following groups were included for the APPSWE-tg mice: 25 mg/kg: 1.5, 72, 168 and 336 hours; 5 mg/kg): 336 hours (2 weeks). For C57BL/6 mice: 25 mg/kg: 168 and 336 hours; 5 mg/kg): 1.5, 168 and 336 hours. […]"}, "human Aβ40": {"tested_on": "human Aβ40", "experiment": "Human Aβ40 in plasma, time-response after single i.v. dose (Example 26)", "assay_type": "in vivo, APPSWE-tg mice", "settings": "25 mg/kg single i.v.", "description": "as §3, §4"}, "Aβ 1-42 [6]": {"tested_on": "Aβ 1-42", "experiment": "Degradation of Aβ 1-42 in APPswe-tg mouse plasma pool (Example 28)", "assay_type": "biochemical", "settings": "room temperature, 1 hour", "description": "Mouse plasma collected from 9 animals was stored at −70° C. Plasma was thawed and pooled just before the experiment. Aβ 1-40 and 1-42 in plasma pool was degraded by human Fc-Nep or mouse Fc-Nep with corresponding vehicles (50 mM Tris-HCl, 150 mM NaCl pH 7.5). The following final concentrations of the Fc-Nep constructs were used, 100, 32, 10, 3.2, 1, 0.3, 0.1 and […] and the degradation occurred at room temperature for 1 hour while shaking on an orbital shaker. The enzymatic reaction was stopped by adding Phosphoramidone (10 μM final concentration).\nAfter degradation, a final concentration of 4.7 mM EDTA was added to the tg-mouse plasma tubes and the plasma samples were diluted 3 times in sample diluent, before the concentration of Aβ42 was analyzed using ELISA kit Innotest® β-Amyloid1-42 (Innogenetics, lot#177462, ref#80177) according to the manufacturers instructions. The highest concentration (100 μg/ml) of human Fc-Nep and mouse Fc-Nep degraded human plasma amyloid β 1-40 by 71% and 77%, respectively and Aβ 1-42 by 34% and 53%, respectively, as compared to plasma without Fc-Nep treatment."}, "[7]": {"experiment": "Plasma exposure in APPSWE-tg mice (Example 26)", "assay_type": "in vivo", "settings": "single intravenous injection of 25 mg/kg", "description": "as §2"}, "[8]": {"settings": "highest concentration 100 μg/ml"}}, "data": [{"molecule": "B1", "values": [{"measurement": "Degradation of Aβ 1-42 compared to plasma without treatment", "setting": "Aβ 1-42 [1]; [8]", "value": 19, "unit": "%"}, {"measurement": "EC50", "setting": "Aβ 1-42 [1]", "value": 180, "unit": "nM"}, {"measurement": "Aβ42 levels compared to vehicle", "setting": "human Aβ42; 1.5 hours", "value": 87, "unit": "%"}, {"measurement": "Aβ42 levels compared to vehicle", "setting": "human Aβ42; two weeks (336 hours)", "value": 44, "unit": "%"}, {"measurement": "Observations of the animal health", "setting": "[2]", "value": "no overt adverse effects"}, {"measurement": "Degradation of amyloid β 1-40 compared to plasma without treatment", "setting": "amyloid β 1-40 [3]; [8]", "value": 71, "unit": "%"}, {"measurement": "EC50", "setting": "amyloid β 1-40 [3]", "value": 400, "unit": "nM"}, {"measurement": "plasma half-life", "setting": "[4]", "value": "long"}, {"measurement": "Plasma exposure", "setting": "[4]; 336 hours", "value": 48, "unit": "µg/mL"}, {"measurement": "Degradation of amyloid β 1-40 compared to plasma without treatment", "setting": "amyloid β 1-40 [5]; [8]", "value": 77, "unit": "%"}, {"measurement": "EC50", "setting": "amyloid β 1-40 [5]", "value": 340, "unit": "nM"}, {"measurement": "Reduction of mouse Aβ40 levels in plasma compared to vehicle", "setting": "mouse Aβ40", "value": 73, "unit": "%"}, {"measurement": "Aβ40 levels compared to vehicle", "setting": "human Aβ40; 1.5 hours", "value": 91, "unit": "%"}, {"measurement": "Aβ40 levels compared to vehicle", "setting": "human Aβ40; two weeks (336 hours)", "value": 58, "unit": "%"}, {"measurement": "Degradation of Aβ 1-42 compared to plasma without treatment", "setting": "Aβ 1-42 [6]; [8]", "value": 53, "unit": "%"}, {"measurement": "EC50", "setting": "Aβ 1-42 [6]", "value": 820, "unit": "nM"}, {"measurement": "Plasma exposure", "setting": "[7]; 1.5 hours", "value": 299, "unit": "µg/mL"}, {"measurement": "Plasma exposure", "setting": "[7]; 336 hours", "value": 60, "unit": "µg/mL"}]}]}
